Data reported in patent publication US20230192896A1 (BIOVERATIV THERAPEUTICS, published 2023).
Numbering of substitutions follows the chain as printed.

B1: BIIB-9-480 (antibody, V domains shown)
VH: QVQLQESGPGLVKPSETLSLTCAVSGYSISSGYYWGWIRQPPGKGLEWIGSSYHSGSTYYNPSLKSRVTISVDTSKNQFSLKLSSVTAADTAVYYCARDQQDYGAFDIWGQGTMVTVSS
VL: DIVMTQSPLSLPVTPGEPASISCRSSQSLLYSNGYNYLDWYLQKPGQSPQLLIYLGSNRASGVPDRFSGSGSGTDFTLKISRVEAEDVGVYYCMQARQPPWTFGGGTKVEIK
notes: IgG
B2: BIIB-9-558 (antibody, V domains shown)
VH: EVQLVESGGGLVKPGGSLRLSCAASGFTFSSYSMNWVRQAPGKGLEWVSSISSSSSYIYYADSVKGRFTISRDNAKNSLYLQMNSLRAEDTAVYYCARSYGYGYHDFDLWGRGTLVTVSS
VL: DIQMTQSPSTLSASVGDRVTITCRASQSIGSWLAWYQQKPGKAPKLLIYKASSLESGVPSRFSGSGSGTEFTLTISSLQPDDFATYYCQQAGSYSFTFGGGTKVEIK
notes: IgG
B3: BIIB-9-415 (antibody, V domains shown)
VH: QVQLVQSGAEVKKPGASVKVSCKASGYTFTSYYMHWVRQAPGQGLEWMGIINPSGGSTSYAQKFQGRVTMTRDTSTSTVYMELSSLRSEDTAVYYCARDGLSSGYYWDNWGQGTLVTVSS
VL: DIQMTQSPSSVSASVGDRVTITCRASQGIDSWLAWYQQKPGKAPKLLIYAASSLQSGVPSRFSGSGSGTDFTLTISSLQPEDFATYYCQQGDAFPFTFGGGTKVEIK
notes: IgG
B4: BIIB-9-425 (antibody, V domains shown)
VH: QVQLVQSGAEVKKPGASVKVSCKASGYTFTSYYMHWVRQAPGQGLEWMGIINPSGGSTSYAQKFQGRVTMTRDTSTSTVYMELSSLRSEDTAVYYCAREPTWDVAYDYWGQGTLVTVS
VL: EIVLTQSPGTLSLSPGERATLSCRASQSVSSDYLAWYQQKPGQAPRLLIYGASSRATGIPDRFSGSGSGTDFTLTISRLEPEDFAVYYCQQYDSHPYTFGGGTKVEIK
notes: IgG
B5: BIIB-9-440 (antibody, V domains shown)
VH: QLQLQESGPGLVKPSETLSLTCTVSGGSISSSDYYWGWIRQPPGKGLEWIGSIYYSGSTYYNPSLKSRVTISVDTSKNQFSLKLSSVTAADTAVYYCARSPRHKVRGPNWFDPWGQGTLVTVSS
VL: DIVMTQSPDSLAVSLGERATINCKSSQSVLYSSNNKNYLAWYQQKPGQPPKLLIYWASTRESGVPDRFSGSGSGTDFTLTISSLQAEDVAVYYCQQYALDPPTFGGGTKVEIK
notes: IgG
B6: BIIB-9-460 (antibody, V domains shown)
VH: QVQLVQSGAEVKKPGASVKVSCKASGYTFTSYYMHWVRQAPGQGLEWMGIINPSGGSTSYAQKFQGRVTMTRDTSTSTVYMELSSLRSEDTAVYYCARDISTDGESSLYYYMDVWGKGTTVTVSS
VL: EIVMTQSPATLSVSPGERATLSCRASQSVSSNLAWYQQKPGQAPRLLIYGASTRATGIPARFSGSGSGTEFTLTISSLQSEDFAVYYCQQHDNFPFTFGGGTKVEIK
notes: IgG
B7: BIIB-9-461 (antibody, V domains shown)
VH: QVQLVQSGAEVKKPGASVKVSCKASGYTFTSYYMHWVRQAPGQGLEWMGIINPSGGSTSYAQKFQGRVTMTRDTSTSTVYMELSSLRSEDTAVYYCARGPTDSSGYLDMDVWGKGTTVTVSS
VL: B6 VL with N32S, D92H, N93H, F94W, F96P
notes: IgG
B8: BIIB-9-465 (antibody, V domains shown)
VH: QVQLVQSGAEVKKPGASVKVSCKASGYTFTSYYMVWVRQAPGQGLEWMGIINPSGGSTSYAQKFQGRVTMTRDTSTSTVYMELSSLRSEDTAVYYCARSPTDGYYFDLWGRGTLVTVSS
VL: B2 VL with G30N, Y49S, K50D, A91Y, G92E, S93I, Y94F, S95P
notes: IgG
B9: BIIB-9-564 (antibody, V domains shown)
VH: QVQLQESGPGLVKPSETLSLTCAVSGYSISSGYYWAWIRQPPGKGLEWIGSIYHSGSTYYNPSLKSRVTISVDTSKNQFSLKLSSVTAADTAVYYCARDPGYSWEYFDYWGQGTLVTVSS
VL: B3 VL with V11L, G28S, D30S, W32Y, A34N, G91S, D92V, F94V, F96P
notes: IgG; also called BIB-4-564
B10: BIIB-9-469 (antibody, V domains shown)
VH: QVQLVQSGAEVKKPGASVKVSCKASGYTFTSYYMHWVRQAPGQGLEWMGIINPSGGSTSYAQKFQGRVTMTRDTSTSTVYMELSSLRSEDTAVYYCARDLGYGRSYDFDLWGRGTLVTVSS
VL: B6 VL with Y49F, H91S, D92N
notes: IgG
B11: BIIB-9-567 (antibody, V domains shown)
VH: B7 VH with G99L, P100G, T101R, D102R, S103Y, S104Y, G105A, L107D, D108G, K114Q
VL: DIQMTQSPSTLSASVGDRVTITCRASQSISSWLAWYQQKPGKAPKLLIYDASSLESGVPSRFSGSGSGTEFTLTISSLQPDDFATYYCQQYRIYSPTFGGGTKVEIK
notes: IgG
B12: BIIB-9-588 (antibody, V domains shown)
VH: QVQLVQSGAEVKKPGASVKVSCKASGYTFTSYYMHWVRQAPGQGLEWMGIINPSGGSTTYAQKFQGRVTMTRDTSTSTVYMELSSLRSEDTAVYYCARDGGGSYDYWSGYWYDVWGQGTTVTVSS
VL: B6 VL with H91A, D92Y, F94W
notes: IgG
B13: BIIB-9-611 (antibody, V domains shown)
VH: B3 VH with D99E, G100V, L101I, S103R, G104V, Y105S, W107F, N109L, Q112R
VL: B6 VL with H91D, D92N, N93I, F94H, F96Y
notes: IgG
B14: BIIB-9-619 (antibody, V domains shown)
VH: QVQLVQSGAEVKKPGASVKVSCKASGYTFTSYYMHWVRQAPGQGLEWMGIINPSGGSTSYAQKFQGRVTMTRDTSTSTVYMELSSLRSEDTAVYYCARDGPRVSDYYMDVWGKGTTVTVSS
VL: B6 VL with M4L, V13L, N32Y, G50D, T53N, E70D, Q79E, S80P, H91R, F94W
notes: IgG
B15: BIIB-9-626 (antibody, V domains shown)
VH: B3 VH with I50V, G100L, L101Q, S102Y, G104M, Y105T, W107F, N109Y
VL: DIQMTQSPSTLSASVGDRVTITCRASQSISSWLAWYQQKPGKAPKLLIYKASSLESGVPSRFSGSGSGTEFTLTISSLQPDDFATYYCQQDGSYPPLTFGGGTKVEIK
notes: IgG
B16: BIIB-9-883 (antibody, V domains shown)
VH: B8 VH with V35H, S99D, P100G, T101R, D102L, G103S, Y105T, F106W, L108R, R111Q
VL: DIQMTQSPSSLSASVGDRVTITCQASQDITNYLNWYQQKPGKAPKLLIYDASNLETGVPSRFSGSGSGTDFTFTISSLQPEDIATYYCQQADHFPFTFGGGTKVEIK
notes: IgG
B17: BIIB-9-419 (antibody, V domains shown)
VH: QVQLVQSGAEVKKPGASVKVSCKASGYTFTSYYMHWVRQAPGQGLEWMGIINPSGGSTSYAQKFQGRVTMTRDTSTSTVYMELSSLRSEDTAVYYCAREPTFYASYFDLWGRGTLVTVS
VL: EIVMTQSPATLSLSPGERATLSCRASQSVSSYLAWYQQKPGQAPRLLIYDSSNRATGIPARFSGSGSGTDFTLTISSLEPEDFAVYYCQQVSTHPYTFGGGTKVEIK
notes: IgG

Target: T1, FIXa-SM (FIXa+EGR-CMK) (human, UniProt P00740 47-191; P00740 227-461, EGR-CMK (L-Glu-Gly-Arg chloromethyl ketone) covalently bound to the active site)
T1 construct: BLI antigen bought from Haematologic Technologies (HCIXA-EGR); also called FIXa with substrate mimic
Experiment: BLI; class meaning: paragraph 914

Binding result, binds:
B1, B2, B3, B4, B5, B6, B7, B8, B9, B10, B11, B12, B13, B14, B15, B16, B17
